Reference: US20050032185A1

Legend:
[1] = target: HA-PKBα (haemagglutinin epitope-tagged human PKBα expressed in 293 cells) (human) (UniProt P31749); experiment: cell-based or functional assay
[2] = target: GST-PKBα (full length human protein kinase Bα with N-terminal glutathione S-transferase, from unstimulated 293 cells) (human) [GST: P08515]; experiment: cell-based or functional assay
Chain of GST-PKBα (full length human protein kinase Bα with N-terminal glutathione S-transferase, from unstimulated 293 cells) (human) [GST: P08515] (P08515 1-218, tags or fused parts left off): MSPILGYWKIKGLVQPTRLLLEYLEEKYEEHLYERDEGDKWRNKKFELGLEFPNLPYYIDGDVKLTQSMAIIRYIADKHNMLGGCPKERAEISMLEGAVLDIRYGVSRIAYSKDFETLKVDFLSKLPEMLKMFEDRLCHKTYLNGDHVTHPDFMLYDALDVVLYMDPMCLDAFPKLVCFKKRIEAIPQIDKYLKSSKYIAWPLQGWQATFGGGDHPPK

Chain of HA-PKBα (haemagglutinin epitope-tagged human PKBα expressed in 293 cells) (human) (P31749 whole entry): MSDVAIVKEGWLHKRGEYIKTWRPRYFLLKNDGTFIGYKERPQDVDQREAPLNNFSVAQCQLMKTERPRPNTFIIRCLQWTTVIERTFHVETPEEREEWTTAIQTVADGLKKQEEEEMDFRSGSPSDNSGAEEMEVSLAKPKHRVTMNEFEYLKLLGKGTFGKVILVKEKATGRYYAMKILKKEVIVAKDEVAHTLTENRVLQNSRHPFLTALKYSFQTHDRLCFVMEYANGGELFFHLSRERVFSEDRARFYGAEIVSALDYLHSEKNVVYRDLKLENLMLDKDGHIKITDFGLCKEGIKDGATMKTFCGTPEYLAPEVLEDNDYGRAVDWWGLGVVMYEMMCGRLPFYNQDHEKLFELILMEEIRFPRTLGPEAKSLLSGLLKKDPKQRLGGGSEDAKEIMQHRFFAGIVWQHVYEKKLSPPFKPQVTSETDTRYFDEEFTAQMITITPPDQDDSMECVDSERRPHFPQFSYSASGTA

Row | Thr308 phosphorylation of HA-PKBα in unstimulated cotransfected 293 cells, relative to IGF1-stimulated cells with HA-PKBα alone [1] | activity of HA-PKBα immunoprecipitated from cotransfected 293 cells after IGF-1 [1] | activity of HA-PKBα immunoprecipitated from cotransfected, unstimulated 293 cells [1] | further increase of Thr308 phosphorylation of HA-PKBα in cotransfected cells in response to IGF1 [1] | fold activation with sn-1,2-dipalmitoyl D-PtdIns(3,4,5)P3 [2] | fold activation with sn-1-stearoyl, 2-arachidonyl D-PtdIns(3,4,5)P3 (lipid 1) [2] | fold activation with sn-2-arachidonyl, 3-stearoyl D-PtdIns(3,4,5)P3 [2] | fold activation with sn-2-arachidonyl, 3-stearoyl L-PtdIns(3,4,5)P3 [2] | fold activation with the L-enantiomer of sn-1-stearoyl, 2-arachidonyl PtdIns(3,4,5)P3 [2] | Substance
1 | 70% | 70 fold | 20 fold | 4 fold | – | – | – | – | – | Myc-PDK1 (N-terminal Myc epitope-tagged human PDK1, residues 52-556, expressed in 293 cells) (from UniProt O15530 52-556) (enzyme)
2 | – | – | – | – | 5.5 fold | 13 fold | 16 fold | 2.3 fold | 1.7 fold | PtdIns(3,4,5)P3-dependent protein kinase-1 (PDK1) purified from rabbit skeletal muscle (enzyme)
